Laboratory results reported in patent US20220298218A1 (ANTAG THERAPEUTICS, published 2022).
*1 amine or outer side, *2 acyl side, *3 side chain or, on linkers, in order; H or OH if unused. Where no end group is shown, it is not given here. Side-chain parts run from the residue outwards. The star is where a group is joined. C18 diacid = O=C(O)CCCCCCCCCCCCCCCCC(=O)*; C16 diacid = O=C(O)CCCCCCCCCCCCCCC(=O)*; γGlu = O=C(O)[C@H](CCC(=O)[*:2])N[*:1]; PEG = not defined here; AEEA = NCCOCCOCC(=O)O

T1: human GIP receptor (human, UniProt P48546 22-466)
T1 sequence (looked up): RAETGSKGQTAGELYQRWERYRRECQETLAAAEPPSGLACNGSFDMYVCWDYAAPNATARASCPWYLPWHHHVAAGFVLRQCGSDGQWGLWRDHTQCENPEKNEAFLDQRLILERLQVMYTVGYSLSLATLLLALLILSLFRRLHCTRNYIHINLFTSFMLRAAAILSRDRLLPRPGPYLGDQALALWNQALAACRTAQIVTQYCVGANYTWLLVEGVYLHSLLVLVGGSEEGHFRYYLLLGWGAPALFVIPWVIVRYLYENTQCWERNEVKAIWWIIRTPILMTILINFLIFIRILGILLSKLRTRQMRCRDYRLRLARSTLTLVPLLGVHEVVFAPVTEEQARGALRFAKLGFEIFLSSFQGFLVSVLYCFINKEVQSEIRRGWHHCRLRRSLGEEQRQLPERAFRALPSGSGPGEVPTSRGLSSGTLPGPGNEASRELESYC

B1: AT614 (peptide)
peptide: EGTFISEYSIAMEKIK(C16 diacid)QQDFVEWLLAQKPSSGAPPPS-OH
modifications: N-terminus assumed
SMILES: CC[C@H](C)[C@H](NC(=O)[C@H](CO)NC(=O)[C@H](Cc1ccc(O)cc1)NC(=O)[C@H](CCC(=O)O)NC(=O)[C@H](CO)NC(=O)[C@@H](NC(=O)[C@H](Cc1ccccc1)NC(=O)[C@@H](NC(=O)CNC(=O)[C@@H](N)CCC(=O)O)[C@@H](C)O)[C@@H](C)CC)C(=O)N[C@@H](C)C(=O)N[C@@H](CCSC)C(=O)N[C@@H](CCC(=O)O)C(=O)N[C@@H](CCCCN)C(=O)N[C@H](C(=O)N[C@@H](CCCCNC(=O)CCCCCCCCCCCCCCC(=O)O)C(=O)N[C@@H](CCC(N)=O)C(=O)N[C@@H](CCC(N)=O)C(=O)N[C@@H](CC(=O)O)C(=O)N[C@@H](Cc1ccccc1)C(=O)N[C@H](C(=O)N[C@@H](CCC(=O)O)C(=O)N[C@@H](Cc1c[nH]c2ccccc12)C(=O)N[C@@H](CC(C)C)C(=O)N[C@@H](CC(C)C)C(=O)N[C@@H](C)C(=O)N[C@@H](CCC(N)=O)C(=O)N[C@@H](CCCCN)C(=O)N1CCC[C@H]1C(=O)N[C@@H](CO)C(=O)N[C@@H](CO)C(=O)NCC(=O)N[C@@H](C)C(=O)N1CCC[C@H]1C(=O)N1CCC[C@H]1C(=O)N1CCC[C@H]1C(=O)N[C@@H](CO)C(=O)O)C(C)C)[C@@H](C)CC
B2: AT591 (peptide)
peptide: EGTFISDYSIAMDKIK([AEEA-AEEA-γGlu-C18 diacid])QQDFVNWLLAGGPSSGAPPPS-NH2
modifications: N-terminus assumed
SMILES: CC[C@H](C)[C@H](NC(=O)[C@H](CO)NC(=O)[C@H](Cc1ccc(O)cc1)NC(=O)[C@H](CC(=O)O)NC(=O)[C@H](CO)NC(=O)[C@@H](NC(=O)[C@H](Cc1ccccc1)NC(=O)[C@@H](NC(=O)CNC(=O)[C@@H](N)CCC(=O)O)[C@@H](C)O)[C@@H](C)CC)C(=O)N[C@@H](C)C(=O)N[C@@H](CCSC)C(=O)N[C@@H](CC(=O)O)C(=O)N[C@@H](CCCCN)C(=O)N[C@H](C(=O)N[C@@H](CCCCNC(=O)COCCOCCNC(=O)COCCOCCNC(=O)CC[C@H](NC(=O)CCCCCCCCCCCCCCCCC(=O)O)C(=O)O)C(=O)N[C@@H](CCC(N)=O)C(=O)N[C@@H](CCC(N)=O)C(=O)N[C@@H](CC(=O)O)C(=O)N[C@@H](Cc1ccccc1)C(=O)N[C@H](C(=O)N[C@@H](CC(N)=O)C(=O)N[C@@H](Cc1c[nH]c2ccccc12)C(=O)N[C@@H](CC(C)C)C(=O)N[C@@H](CC(C)C)C(=O)N[C@@H](C)C(=O)NCC(=O)NCC(=O)N1CCC[C@H]1C(=O)N[C@@H](CO)C(=O)N[C@@H](CO)C(=O)NCC(=O)N[C@@H](C)C(=O)N1CCC[C@H]1C(=O)N1CCC[C@H]1C(=O)N1CCC[C@H]1C(=O)N[C@@H](CO)C(N)=O)C(C)C)[C@@H](C)CC
B3: AT594 (peptide)
peptide: EGTFISDYSIAMDKIHQK([AEEA-AEEA-γGlu-C18 diacid])DFVNWLLAQKPSSGAPPPS-NH2
modifications: N-terminus assumed
SMILES: CC[C@H](C)[C@H](NC(=O)[C@H](CO)NC(=O)[C@H](Cc1ccc(O)cc1)NC(=O)[C@H](CC(=O)O)NC(=O)[C@H](CO)NC(=O)[C@@H](NC(=O)[C@H](Cc1ccccc1)NC(=O)[C@@H](NC(=O)CNC(=O)[C@@H](N)CCC(=O)O)[C@@H](C)O)[C@@H](C)CC)C(=O)N[C@@H](C)C(=O)N[C@@H](CCSC)C(=O)N[C@@H](CC(=O)O)C(=O)N[C@@H](CCCCN)C(=O)N[C@H](C(=O)N[C@@H](Cc1c[nH]cn1)C(=O)N[C@@H](CCC(N)=O)C(=O)N[C@@H](CCCCNC(=O)COCCOCCNC(=O)COCCOCCNC(=O)CC[C@H](NC(=O)CCCCCCCCCCCCCCCCC(=O)O)C(=O)O)C(=O)N[C@@H](CC(=O)O)C(=O)N[C@@H](Cc1ccccc1)C(=O)N[C@H](C(=O)N[C@@H](CC(N)=O)C(=O)N[C@@H](Cc1c[nH]c2ccccc12)C(=O)N[C@@H](CC(C)C)C(=O)N[C@@H](CC(C)C)C(=O)N[C@@H](C)C(=O)N[C@@H](CCC(N)=O)C(=O)N[C@@H](CCCCN)C(=O)N1CCC[C@H]1C(=O)N[C@@H](CO)C(=O)N[C@@H](CO)C(=O)NCC(=O)N[C@@H](C)C(=O)N1CCC[C@H]1C(=O)N1CCC[C@H]1C(=O)N1CCC[C@H]1C(=O)N[C@@H](CO)C(N)=O)C(C)C)[C@@H](C)CC
B4: AT593 (peptide)
peptide: EGTFISDYSIAMDKIK([AEEA-AEEA-γGlu-C18 diacid])QQDFVNWLLAQPSSGAPPPS-NH2
modifications: N-terminus assumed
SMILES: CC[C@H](C)[C@H](NC(=O)[C@H](CO)NC(=O)[C@H](Cc1ccc(O)cc1)NC(=O)[C@H](CC(=O)O)NC(=O)[C@H](CO)NC(=O)[C@@H](NC(=O)[C@H](Cc1ccccc1)NC(=O)[C@@H](NC(=O)CNC(=O)[C@@H](N)CCC(=O)O)[C@@H](C)O)[C@@H](C)CC)C(=O)N[C@@H](C)C(=O)N[C@@H](CCSC)C(=O)N[C@@H](CC(=O)O)C(=O)N[C@@H](CCCCN)C(=O)N[C@H](C(=O)N[C@@H](CCCCNC(=O)COCCOCCNC(=O)COCCOCCNC(=O)CC[C@H](NC(=O)CCCCCCCCCCCCCCCCC(=O)O)C(=O)O)C(=O)N[C@@H](CCC(N)=O)C(=O)N[C@@H](CCC(N)=O)C(=O)N[C@@H](CC(=O)O)C(=O)N[C@@H](Cc1ccccc1)C(=O)N[C@H](C(=O)N[C@@H](CC(N)=O)C(=O)N[C@@H](Cc1c[nH]c2ccccc12)C(=O)N[C@@H](CC(C)C)C(=O)N[C@@H](CC(C)C)C(=O)N[C@@H](C)C(=O)N[C@@H](CCC(N)=O)C(=O)N1CCC[C@H]1C(=O)N[C@@H](CO)C(=O)N[C@@H](CO)C(=O)NCC(=O)N[C@@H](C)C(=O)N1CCC[C@H]1C(=O)N1CCC[C@H]1C(=O)N1CCC[C@H]1C(=O)N[C@@H](CO)C(N)=O)C(C)C)[C@@H](C)CC
B5: AT613 (peptide)
peptide: EGTFISEYSIAMEKIK(C16 diacid)QQEFVQWLLAQKPSSGAPPPS-OH
modifications: N-terminus assumed
SMILES: CC[C@H](C)[C@H](NC(=O)[C@H](CO)NC(=O)[C@H](Cc1ccc(O)cc1)NC(=O)[C@H](CCC(=O)O)NC(=O)[C@H](CO)NC(=O)[C@@H](NC(=O)[C@H](Cc1ccccc1)NC(=O)[C@@H](NC(=O)CNC(=O)[C@@H](N)CCC(=O)O)[C@@H](C)O)[C@@H](C)CC)C(=O)N[C@@H](C)C(=O)N[C@@H](CCSC)C(=O)N[C@@H](CCC(=O)O)C(=O)N[C@@H](CCCCN)C(=O)N[C@H](C(=O)N[C@@H](CCCCNC(=O)CCCCCCCCCCCCCCC(=O)O)C(=O)N[C@@H](CCC(N)=O)C(=O)N[C@@H](CCC(N)=O)C(=O)N[C@@H](CCC(=O)O)C(=O)N[C@@H](Cc1ccccc1)C(=O)N[C@H](C(=O)N[C@@H](CCC(N)=O)C(=O)N[C@@H](Cc1c[nH]c2ccccc12)C(=O)N[C@@H](CC(C)C)C(=O)N[C@@H](CC(C)C)C(=O)N[C@@H](C)C(=O)N[C@@H](CCC(N)=O)C(=O)N[C@@H](CCCCN)C(=O)N1CCC[C@H]1C(=O)N[C@@H](CO)C(=O)N[C@@H](CO)C(=O)NCC(=O)N[C@@H](C)C(=O)N1CCC[C@H]1C(=O)N1CCC[C@H]1C(=O)N1CCC[C@H]1C(=O)N[C@@H](CO)C(=O)O)C(C)C)[C@@H](C)CC
B6: AT592 (peptide)
peptide: EGTFISDYSIAMDKIK([AEEA-AEEA-γGlu-C18 diacid])QQDFVNWLLAGGPSSGAPPPS-OH
modifications: N-terminus assumed
SMILES: CC[C@H](C)[C@H](NC(=O)[C@H](CO)NC(=O)[C@H](Cc1ccc(O)cc1)NC(=O)[C@H](CC(=O)O)NC(=O)[C@H](CO)NC(=O)[C@@H](NC(=O)[C@H](Cc1ccccc1)NC(=O)[C@@H](NC(=O)CNC(=O)[C@@H](N)CCC(=O)O)[C@@H](C)O)[C@@H](C)CC)C(=O)N[C@@H](C)C(=O)N[C@@H](CCSC)C(=O)N[C@@H](CC(=O)O)C(=O)N[C@@H](CCCCN)C(=O)N[C@H](C(=O)N[C@@H](CCCCNC(=O)COCCOCCNC(=O)COCCOCCNC(=O)CC[C@H](NC(=O)CCCCCCCCCCCCCCCCC(=O)O)C(=O)O)C(=O)N[C@@H](CCC(N)=O)C(=O)N[C@@H](CCC(N)=O)C(=O)N[C@@H](CC(=O)O)C(=O)N[C@@H](Cc1ccccc1)C(=O)N[C@H](C(=O)N[C@@H](CC(N)=O)C(=O)N[C@@H](Cc1c[nH]c2ccccc12)C(=O)N[C@@H](CC(C)C)C(=O)N[C@@H](CC(C)C)C(=O)N[C@@H](C)C(=O)NCC(=O)NCC(=O)N1CCC[C@H]1C(=O)N[C@@H](CO)C(=O)N[C@@H](CO)C(=O)NCC(=O)N[C@@H](C)C(=O)N1CCC[C@H]1C(=O)N1CCC[C@H]1C(=O)N1CCC[C@H]1C(=O)N[C@@H](CO)C(=O)O)C(C)C)[C@@H](C)CC

These binders were tested against T1, human GIP receptor (assay: cell-based or functional assay).
With B1 the “cAMP agonism % Emax” value was 0%, the “cAMP antagonism” value was 1.08 nM and the “cAMP antagonism % inhib” value was 100%. For the same binder, the “cAMP antagonism pIC50” value was 9. B2 was tested, and the “cAMP agonism % Emax” value was 0%, the “cAMP antagonism” value was 21.5 nM and the “cAMP antagonism % inhib” value was 92%. The “cAMP antagonism pIC50” value was 7.7. With B3 the “cAMP agonism % Emax” value was 0%, the “cAMP antagonism” value was 79.4 nM and the “cAMP antagonism % inhib” value was 80%. The “cAMP antagonism pIC50” value was 7.1. For TFISDYK([PEG-PEG-γGlu-C18 diacid])IAMDKIHQQDFVNWLLAGGPSSGAPPPS (not fully specified (C-terminus); reading uncertain) [AT602], the “cAMP agonism % Emax” value was 0%, the “cAMP antagonism” value was 35.5 nM and the “cAMP antagonism % inhib” value was 100%. For the same binder, the “cAMP antagonism pIC50” value was 7.5. In the case of B4, the “cAMP agonism % Emax” value is reported as 0%, the “cAMP antagonism” value is reported as 63.1 nM and the “cAMP antagonism % inhib” value is reported as 86%. For the same binder, the “cAMP antagonism pIC50” value was 7.2. In the case of TFISDYK([PEG-PEG-γGlu-C18 diacid])IAMDKIHQQDFVNWLLAQKPSSGAPPPS-NH2 (reading uncertain; also: 2xPEG: PEG unit not given here) [AT597], the “cAMP agonism % Emax” value is reported as 0%, the “cAMP antagonism” value is reported as 79.4 nM and the “cAMP antagonism % inhib” value is reported as 81%. For the same binder, the “cAMP antagonism pIC50” value was 7.1. With B5 the “cAMP agonism % Emax” value was 0%, the “cAMP antagonism” value was 1.47 nM and the “cAMP antagonism % inhib” value was 100%. For the same binder, the “cAMP antagonism pIC50” value was 8.8. In the case of B6, the “cAMP agonism % Emax” value is reported as 0%, the “cAMP antagonism” value is reported as 6.31 nM and the “cAMP antagonism % inhib” value is reported as 88%. For the same binder, the “cAMP antagonism pIC50” value was 8.2.
